In publication PMC314469, “Protein Interaction Networks by Proteome Peptide Scanning” (PLoS Biology, 2004):

T1: Boi1 SH3 (BOI1_YEAST), P38041
T1 chain: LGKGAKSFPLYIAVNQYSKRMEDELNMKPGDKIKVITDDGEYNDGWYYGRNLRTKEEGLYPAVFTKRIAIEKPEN

T2: Boi2 SH3 (BOI2_YEAST), P39969
T2 chain: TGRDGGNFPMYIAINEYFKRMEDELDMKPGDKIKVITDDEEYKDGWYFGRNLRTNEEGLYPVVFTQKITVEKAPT

T3: Rvs167 SH3 (RV167_YEAST), P39743
T3 chain: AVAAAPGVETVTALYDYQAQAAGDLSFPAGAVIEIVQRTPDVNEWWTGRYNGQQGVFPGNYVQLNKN

T4: Yfr024 SH3 (LSB3_YEAST), P43603
T4 chain: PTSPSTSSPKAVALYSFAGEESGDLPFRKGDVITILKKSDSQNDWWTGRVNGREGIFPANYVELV

T5: Yhr016c SH3 (YSC84_YEAST), P32793
T5 chain: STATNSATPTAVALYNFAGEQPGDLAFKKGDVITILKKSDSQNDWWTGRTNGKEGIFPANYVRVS


Assays:
Assay in all cases: SPOT array
[1] = molecular target: T1, Boi1 SH3 (BOI1_YEAST), P38041
[2] = molecular target: T2, Boi2 SH3 (BOI2_YEAST), P39969
[3] = molecular target: T3, Rvs167 SH3 (RV167_YEAST), P39743
[4] = molecular target: T4, Yfr024 SH3 (LSB3_YEAST), P43603
[5] = molecular target: T5, Yhr016c SH3 (YSC84_YEAST), P32793

Row | Binder | normalised SPOT signal, Boehringer light units (BLU); mean over the file's lines of this peptide [1] | normalised SPOT signal, Boehringer light units (BLU); mean over the file's lines of this peptide [2] | normalised SPOT signal, Boehringer light units (BLU); mean over the file's lines of this peptide [3] | normalised SPOT signal, Boehringer light units (BLU); mean over the file's lines of this peptide [4] | normalised SPOT signal, Boehringer light units (BLU); mean over the file's lines of this peptide [5]
1 | SEEPTSPTRQVNPE [YER032W 443-456] | 32.5 | 26.6 | 40.3 | 52.2 | 303
2 | SASPYRPQRLPAKF [YDL033C 13-26] | 514 | 105 | 67.3 | 2420 | 543
3 | SGKPKKPYRRWTPE [YDR464W 666-679] | 109 | 28 | 196 | 4000 | 407
4 | SDKPLTPTKTSSTL [YER143W 341-354] | 110 | 53.6 | 100 | 150 | 377
5 | SAFPQSPIRAYGST [YGL197W 1382-1395] | 238 | 37.5 | 48.9 | 186 | 156
6 | SASPTLPTRRSRRL [YDL156W 62-75] | 46400 | 10000 | 77800 | 49400 | 97900
7 | RVHPEPPNKPGITT [YDR330W 407-420] | 122 | 76.2 | 55.3 | 271 | 250
8 | SALPILPKREVVTR [YGL028C 19-32] | 72.3 | 33.1 | 20100 | 49200 | 43500
9 | SGKPLFPGRDYHHQ [YGR040W 221-234] | 33.8 | 54.4 | 105 | 2060 | 896

Second part, the binder after the results:

Row | normalised SPOT signal, Boehringer light units (BLU); mean over the file's lines of this peptide [1] | normalised SPOT signal, Boehringer light units (BLU); mean over the file's lines of this peptide [2] | normalised SPOT signal, Boehringer light units (BLU); mean over the file's lines of this peptide [3] | normalised SPOT signal, Boehringer light units (BLU); mean over the file's lines of this peptide [4] | normalised SPOT signal, Boehringer light units (BLU); mean over the file's lines of this peptide [5] | Binder
10 | 138 | 39.8 | 20.6 | 4580 | 375 | SELPTRPSKSKTYN [YNL139C 1447-1460]
11 | 1670 | 37.1 | 15.8 | 440 | 0 | SELPKSPYRQKPTQ [YHR184W 124-137]
12 | 342 | 350 | 232 | 15400 | 998 | SFAPFFPTKRRGSW [YOR254C 500-513]
13 | 577 | 65.5 | 25500 | 32900 | 30000 | SGPPLLPPRNTMKN [YJR083C 215-228]
14 | 873 | 141 | 73 | 2690 | 31.6 | SAIPITPTKRIRRN [YJL194W 2-15]
15 | 54.7 | 8.2 | 15.7 | 7000 | 435 | RTEPSTPSRPVPPD [YJL095W 1078-1091]
16 | 54.4 | 38.8 | 24.9 | 196 | 158 | SENPLLPEKLSQSK [YNR016C 154-167]
17 | 75.4 | 28.7 | 68.3 | 322 | 290 | SFVPFPPFKLLTFD [YPR071W 44-57]
18 | 25.5 | 83.4 | 50.9 | 2110 | 148 | RYKPTPPLKKRYDY [YPL074W 335-348]
19 | 230 | 76.1 | 296 | 384 | 144 | RSIPRGPDKNSLRV [YOR322C 268-281]
20 | 41.3 | 59.9 | 27.8 | 8.4 | 50.7 | SDLPSSPIKAPNVE [YHR164C 232-245]
21 | 94.4 | 77.6 | 51.8 | 94.3 | 46.4 | SDTPASPSKVQSFD [YMR182C 187-200]
22 | 156 | 17.8 | 42.3 | 2620 | 196 | RVLPSKPKKSVKEN [YLR183C 354-367]
